From the supplement of paper PMC12636428

tested on: Saccharomyces cerevisiae; experiment: transcriptional activation domain activity (GFP:mCherry ratio, weighted mean of sorted bins, harmonized to initial dataset scale) (arbitrary fluorescence ratio units); higher = stronger transcriptional activation; conditions: beta-estradiol 1 µM; induction time 4 h
Procedure, shortened: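 Sorting into 8 bins by GFP:mCherry ratio followed a 4-hour hold at 30 °C after cultures were diluted 1:5 into SC with 1 uM beta-estradiol. The yeast diploids carried a GFP reporter and had barcoded protein tiles, fused to an estradiol-inducible synthetic transcription factor, integrated at URA3. Barcodes were then sequenced, and tiles with under 50 reads were removed. Activation activity is the read-weighted mean of bin median fluorescence, averaged across barcodes and linearly mapped onto the initial dataset scale.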

Sequence	transcriptional activation domain activity
EDEQPAAPADGRKKTVTKGADKAGLGGTPVRKNATTAGRGRKPATAKKGASQP	32300
MRCPFHLLHTTSGLVYTFYLLFWVLVDTLMFYFFFPSCMSLGSVGHLLFISCC	67600
FFFFFFFFFFFFFLFLLLSLFFPYLICHRLHLKTQLPHICFIFRLLAASCLST	46400
ARYVVQYKNSLIGKHFKMLQQLGIFHLHDLCSPLLFDLWKATGELGALLWFPE	66700
PFLFPSLFYSQYHTIPFSFSCHFIPLSFSFPSFYSGSPIPFPFLFSSSYLFLF	58300
DLCFWLLDVCVLFSPGSCRLHQLSDKYFVEQLVLMNVFLIQVLLKFVFPLGRA	74800
LCRLWGAWGLFTFGLGVLLSAINMRMVLFYRVFITVNLTARSNSKIVNFFRKF	51100
YFWVLGAIPYFVFHSAFCLLWSLFFWFSCWYLSFKILLFRCFFFLFYYSMPSQ	55200
KGGSSPEEASAQSGGARSKEAKETGSSPTGGEVGKSGGKSNKSESSEEKSKDG	19900
MGFLFLLCVLVVWVFFRAWFFRFLFSLVFLFWYFFIYFLWPWYGGVGRGLHSC	36100
GSSGSGAGSKGGPAPRGSSAKRSSGSGSGGGGRKGGGSAGKGSGGGGGRGRSG	28600
SRKGESGREDSGGRDKESRKRSRRDKTPVADERRRDGTRAAEERDRKRRGDHR	49100
RDCQWCAQLVRRTAIVAFNATNAVLNANMYVFVCIFLIAWLVVWKTWLWSVAL	38300
MRIIIFMSLLLLKIIMILLLLLLRIKFNWFSFFSILKMLLSMKIMMLFLFLLL	35900
FFPSFSFSFSSFSFLLFISSSYSFFLFFPSSYSFFLFFFFYLIPYLLDFFPFL	50500
MWLLFYARACLSLLWFTSARVLFFSSFLTFSFLIIWLLGSFDIFRILVLFSFF	87100
PQEPQKGEEEGGARGRPRCPRRRGGPKEEAAVPVEAPAVLAAEPVKADEPAAP	30200
MKFLFILCCHILPYVPIFYLMSLSSIFLHFTLLFIYLITLFYTFAYIFIFSFY	50400
IIKSLVGCLFFVLCPIVLVHSTSCYPRILYPLSYLLFLFWVPHLLFACRVTFT	56400
ALKILVLLIFLMDTLHTYGVISYQWGLFLFCHHNATSACLSVLPWEIFMAVVL	56300
DRRYRISRGGSRMNQVVENTVSRWVGMLPTWRCGLLLHAFVHLKKVYWCPFLR	72700

Sequence	transcriptional activation domain activity
ATIIFVFTASICGYNFNFDWVFSYKLVEFENTLGWTLFCLWLFDALLCVLFMT	52700
MLAKGVWLACMFFFFFFFRLSFLNGSWCEYFYYLLCFFNSSYFFSSLSLRISF	48300
AEEREAKKRAREEEEEEEAERAERAERAARLRRERAEEARRQAEQKHAEEARQ	12100
DNLDLASLDPLEQSPSISMEPVSINETGSAYTTTNTALNDIDIPFSINELNEL	64900
MLLSIWCHHFTFLFFFFFFFDHRFFCFFYSHLFYAVSYSFLLLLLLLYELLLV	47100
VVLGWILGKECMTLYFDTFQIALLFVSVLLVNYLIQDGKSHWLEGVLLVCSYL	37400
MHSDMYLHPTLLSFLSVQFSMGFLFFLCRRYLYFSEWLLVVLCVFVSRFIGFI	38400
ACVALVVLFADSLDDLIPGWGIVAWKIVCGFILVPLGFLPLRLLSFTSILGVM	58500
TACVAIINIKCLFLEMHVWSVLNYAFFFISYGGWWVWTIAQSLIFGHQSIYFV	34700
MTESHRPNQSLGLDDAAGGRKPAKRKAHRKSRTGCRQCRASRVKCDENKPSCS	41000
KRKDAAKKKSEREWKDRVKGVEKAGRDRQKRREENIRKRKEEKGRGKGKKGKG	6830
NFLLNVSVVTRWFLFIVPVLGLLWIPGILSVTSFPNATVWSVRLLWWSIWLTV	63900
ERGTGGQGRRAEEEEAQGGDGGHKTKERGRDEEAGAGGGPAEAGAGAGAKGRT	28600
CASPIFRLKYLYKIPSGIAAMAHIFSVVNHFTFFELMWLMERWNFRRALLGLM	62900
LSILSSLSFSFLSSLSLSFFTLIPFLPLLLFLYSLYSHLFLLLSFILFPHPSL	65400
SEEAQEEAQQPKKKKRTRASDMWKEEGKAEKKEKKKAKKGKKHSKLEEPAEKA	14500
AAAPDVENEPAGRRKAAAAGVEQGGGHPHMLKGVCGNAGWGDAQAAAGKACKG	26900
MTPRAQDSSSDDKEDKKDTDRAAIRAAQNRKAQRLYRQRKEARVRELEATVAK	78900
SIDSAAHHDNSTIPLDFMPRDALHGFDWSEEDDMSDGLPFLKTDPNNNGFFGD	69800
MPRLCLWLTCIYGVMYCMEFSLLVYALHSLANEYYPASYGDNLGCVTVNLHYY	44400
MVPFSYVWEFYFFLMSMGGLGFHIFGLGHIFLFTSHIISFFIIGYWCCLICTK	57200

Sequence	transcriptional activation domain activity
GGPARRMKPGAPDARREEGGKKKRGATNDTGAAKEKAPAKGRKGKKKPAEESE	44500
ADADAGKEAEGGAGGKRCKGCGKGEGEGEEGGLRRCARCKVVVYCGRECQKRD	36700
STALRTWPGLMYLSMYNFRAIKSLVASLMLPNQQARDIIIVLLYSLLRIKSPA	65100
RDDGDDDDGDDHDEEREDGGTRGEGRRRGEKGGREGEAARAEVHEASAEAEAG	16300
MFKGTLLLVFFHYGWALFLDYCLWYIMISLCFWYRVCLPVLLLGFHVCCHLWC	48500
AKRARKSSSSAAAKEEEGQPQQTAPAAAANGTAADEARADTTTASTKSDKKQK	28800
TEVQNYPHALDLITDNLDDDFQDELRGSLDVQARLLYGLIHARWIVTARGLSK	40200
ERDEEEDEDEEEEDEGKRRKRRGARSTAAISKRETGKAKDETREDPESRKKRG	23600
MTYTFDLFSSFLSIVYMPHMATLYFLFFFLLLQCGYFIVLCFFFFHCVLCCFS	67000
LPLIQRFLIIAPAVIFYSYVYIVPTARRLQLRVCIRNWLGRWYVHLPVLSRSH	57400
RTKASGSSGEAAAASGGASSSKAEDARAEGGEEAAKPRRSSRLSAKSAGESAG	15000
HAARALSLPSISPQFFVLLHKLSFPLLPFWLPMYFLLCITLPSSWLVLLYLFL	37800
KRPTSHTLRPFFYFLLAVIYTVAHALVMIYQMISLNVAVNSYDNALLTLLVSN	52200
GDLGFRDSIVTKVLQDARSNFLVSVSRLLRPIFVLMKKWVRLAVERLNICHSR	33300
VFWRSLFNRVFDFGFDLVLFVFFSLALSLYFVVSHSKSLPFWFMCFFFIPLFN	78000
SVLHTMYVVAIKDSSAWYGDSPADLCMIGFWNLVIVWLKLLIPWRFFRLWAIL	55900
TDSNATQKQLPVLTPSDLLSPFSVPSVSQVLFTNELRSMMLADNNIDSGAFPT	79900
MYNLNLFYFSFFLSLSLFLFFFPLPFFFRSVWFANLFFVLLFLYYVPFLSHSC	58700
GRKPAAKPTPRNSSTTARGRKAKSEPESEDDKPLAKKGGAAATKQTKKPAVKK	22300
MEQTNKEDSGSDTQACPICDAPAVNRCSRCASVYYCSQEHQKEVRYESPSNAL	49900
SKKRKIKGGKSRSSSSKSDSSSSSSSSEDGEEKDLSKGVGKRGAKRAKSDDSS	19000

Sequence	transcriptional activation domain activity
IRDRFNHGPCKVYILFMNCTYLPMIPGLFRIIEILRYYLRLRWLRCCSAAGPD	60300
VDADTASSVSGMTGGRSARWREDVMELCLACVAVGCVKDVGAVNNYHQTGELR	42700
VFFFLVIALYPFFSSLFTRHGFYTFSPFNCQLSWLFFQWGHSILLFLLRLVSY	46600
LFLSLSSACPSFFPLLPFPFLLAFLITFLAPFPSFLSLLVPHSVPIPLSLPTS	49800
GAVINLSLSLGRRTQVEEAIKLVRYKAHYVSGSIDHGLHRLLVWAYTLLTVRI	57100
MIIYYIGSIFWCLGNLQVGGFFGFDGIWSYCIFWRNWVRDVFGLSVLIGVVNY	44900
IAQRLEILIYSHIVCIPLIASFSCLSWIFWMEYYFAWWFDSVITIRDINWHML	36500
VVGISCCFLCMIVILLYFFPLLLFSSLRPLIYLVELLPLTCHIALGGSLYLTL	77600
TTLVTGTQLFFLLSFRDTMFAFSFLLFSPFVLFLWYGFFSSGALFISLICFLV	54700
DRSRATEEEDGKSTKRSRARSRTFTFSKSDKGGDGSPSKKVRSTSKSRAKHDG	31100
KLFFNLSILTLCAIMTLSVVVAFLFVTGCDPFYGYRGILFGFRILLTDIFSNM	31400
MLFLFFFIHILHPFFFFFNPFFLFLSFFFISFCTSVCLCMRKQLTRIIFLNYI	50500
ENDGEEVEGEEKESSQGAGGLMGRFTKETDDVRLGASQNIGLVLQYLTSFIAC	17000
VISTLYHGPQIWVPILVSTGLLAIFAEILPQYFIPRQAISWGYYCWPLIWGCM	36700
WRVLSVFAVFNLGPYVFSLILYSSNAFLYTQWLSFTAVCLISLANVILFRFLL	43700
PVKETETAAVPEVTAEPEAEAAKPAEAPKEEKKEEKKEAKSPKVSRRLSQRVE	58300
FLLLFFFFVYFHLSFSFLTFLLSPLFVFIFMFYFGSFIFLPLSLFLFSLLFFS	66100
MFCLRSWIPILFFLTNASPIYLLLFISATYTLNRPCVYCSLLLGILVLALFDF	28600
HLINEDKYQSFSIKQWLPLVYNMLFYIKEKEELVLRINSSFTLRRFVEMAAKE	50700
FDQDIPQDSSLNTSYISNLPYFGVTPSENFDETWFFDQAIGLGWLDSAQFTLG	142000
